# B1: Rho GTPase-activating protein 7 (Homo sapiens), Q96QB1-1 (parent)
# chain: MCRKKPDTMILTQIEAKEACDWLRATGFPQYAQLYEDFLFPIDISLVKREHDFLDRDAIEALCRRLNTLNKCAVMKLEISPHRKRSDDSDEDEPCAISGKWTFQRDSKRWSRLEEFDVFSPKQDLVPGSPDDSHPKDGPSPGGTLMDLSERQEVSSVRSLSSTGSLPSHAPPSEDAATPRTNSVISVCSSSNLAGNDDSFGSLPSPKELSSFSFSMKGHEKTAKSKTRSLLKRMESLKLKSSHHSKHKAPSKLGLIISGPILQEGMDEEKLKQLNCVEISALNGNRINVPMVRKRSVSNSTQTSSSSSQSETSSAVSTPSPVTRTRSLSACNKRVGMYLEGFDPFNQSTFNNVVEQNFKNRESYPEDTVFYIPEDHKPGTFPKALTNGSFSPSGNNGSVNWRTGSFHGPGHISLRRENSSDSPKELKRRNSSSSMSSRLSIYDNVPGSILYSSSGDLADLENEDIFPELDDILYHVKGMQRIVNQWSEKFSDEGDSDSALDSVSPCPSSPKQIHLDVDNDRTTPSDLDSTGNSLNEPEEPSEIPERRDSGVGASLTRSNRHRLRWHSFQSSHRPSLNSVSLQINCQSVAQMNLLQKYSLLKLTALLEKYTPSNKHGFSWAVPKFMKRIKVPDYKDRSVFGVPLTVNVQRTGQPLPQSIQQAMRYLRNHCLDQVGLFRKSGVKSRIQALRQMNEGAIDCVNYEGQSAYDVADMLKQYFRDLPEPLMTNKLSETFLQIYQYVPKDQRLQAIKAAIMLLPDENREVLQTLLYFLSDVTAAVKENQMTPTNLAVCLAPSLFHLNTLKRENSSPRVMQRKQSLGKPDQKDLNENLAATQGLAHMIAECKKLFQVPEEMSRCRNSYTEQELKPLTLEALGHLGNDDSADYQHFLQDCVDGLFKEVKEKFKGWVSYSTSEQAELSYKKVSEGPPLRLWRSVIEVPAVPEEILKRLLKEQHLWDVDLLDSKVIEILDSQTEIYQYVQNSMAPHPARDYVVLRTWRTNLPKGACALLLTSVDHDRAPVVGVRVNVLLSRYLIEPCGPGKSKLTYMCRVDLRGHMPEWYTKSFGHLCAAEVVKIRDSFSNQNTETKDTKSR
# Variants of: B1
# Settings: with tens1_chick TNS1, Q04205
# Sequence of tens1_chick TNS1, Q04205 (Q04205 whole entry): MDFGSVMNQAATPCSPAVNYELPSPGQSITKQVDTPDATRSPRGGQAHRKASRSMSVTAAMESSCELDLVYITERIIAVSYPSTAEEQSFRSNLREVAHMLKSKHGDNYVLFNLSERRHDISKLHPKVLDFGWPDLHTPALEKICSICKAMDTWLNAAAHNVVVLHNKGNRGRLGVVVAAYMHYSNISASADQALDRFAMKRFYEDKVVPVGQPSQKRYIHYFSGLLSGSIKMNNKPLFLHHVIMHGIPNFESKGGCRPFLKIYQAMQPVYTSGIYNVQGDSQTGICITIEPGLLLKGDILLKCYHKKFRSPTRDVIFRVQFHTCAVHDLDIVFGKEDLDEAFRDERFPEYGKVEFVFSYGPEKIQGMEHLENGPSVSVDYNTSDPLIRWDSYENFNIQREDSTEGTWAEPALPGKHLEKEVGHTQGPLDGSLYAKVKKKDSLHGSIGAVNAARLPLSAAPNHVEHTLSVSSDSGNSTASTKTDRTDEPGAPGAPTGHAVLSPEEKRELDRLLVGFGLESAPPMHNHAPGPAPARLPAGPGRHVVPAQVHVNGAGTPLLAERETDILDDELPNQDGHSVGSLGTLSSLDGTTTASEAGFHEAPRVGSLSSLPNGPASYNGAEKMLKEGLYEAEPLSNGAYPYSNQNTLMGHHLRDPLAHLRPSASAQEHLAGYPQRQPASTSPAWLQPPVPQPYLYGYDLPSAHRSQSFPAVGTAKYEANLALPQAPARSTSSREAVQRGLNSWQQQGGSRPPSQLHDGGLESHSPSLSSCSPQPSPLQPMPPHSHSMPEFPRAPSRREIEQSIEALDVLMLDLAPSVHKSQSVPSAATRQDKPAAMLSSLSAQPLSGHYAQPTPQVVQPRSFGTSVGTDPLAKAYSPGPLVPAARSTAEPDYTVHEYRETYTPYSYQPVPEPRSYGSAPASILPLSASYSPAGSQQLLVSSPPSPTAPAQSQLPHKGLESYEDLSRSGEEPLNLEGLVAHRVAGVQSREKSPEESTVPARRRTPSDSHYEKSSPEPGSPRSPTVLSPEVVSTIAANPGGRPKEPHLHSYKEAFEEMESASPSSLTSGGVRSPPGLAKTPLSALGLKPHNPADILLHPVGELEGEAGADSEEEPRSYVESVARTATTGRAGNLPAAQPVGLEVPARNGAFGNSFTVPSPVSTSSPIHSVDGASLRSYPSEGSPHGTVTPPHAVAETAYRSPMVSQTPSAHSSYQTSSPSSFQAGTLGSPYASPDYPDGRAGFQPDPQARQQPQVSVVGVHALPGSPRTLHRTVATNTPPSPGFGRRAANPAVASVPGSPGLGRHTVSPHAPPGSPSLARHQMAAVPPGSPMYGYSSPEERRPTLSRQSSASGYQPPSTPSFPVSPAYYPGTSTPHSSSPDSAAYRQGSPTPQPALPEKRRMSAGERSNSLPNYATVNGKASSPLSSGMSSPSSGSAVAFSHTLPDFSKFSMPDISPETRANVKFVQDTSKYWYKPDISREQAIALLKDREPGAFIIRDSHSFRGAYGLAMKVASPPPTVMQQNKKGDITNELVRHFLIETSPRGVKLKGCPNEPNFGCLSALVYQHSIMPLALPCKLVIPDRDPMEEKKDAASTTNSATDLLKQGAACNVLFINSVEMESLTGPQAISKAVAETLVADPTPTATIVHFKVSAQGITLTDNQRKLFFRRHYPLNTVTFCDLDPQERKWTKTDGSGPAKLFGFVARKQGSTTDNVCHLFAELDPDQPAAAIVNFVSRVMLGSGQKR
row,Variant,effect of a mutation on the interaction
1,Y442F,disrupting interaction strength

# Source: IntAct's records for PubMed 17517630
